Results: paper PMC9313131 (2022)

B1: CDC37 (cell division cycle 37), wild type, full-length (natural protein)
chain: MVDYSVWDHIEVSDDEDETHPNIDTASLFRWRHQARVERMEQFQKEKEELDRGCRECKRKVAECQRKLKELEVAEGGKAELERLQAEAQQLRKEERSWEQKLEEMRKKEKSMPWNVDTLSKDGFSKSMVNTKPEKTEEDSEEVREQKHKTFVEKYEKQIKHFGMLRRWDDSQKYLSDNVHLVCEETANYLVIWCIDLEVEEKCALMEQVAHQTIVMQFILELAKSLKVDPRACFRQFFTKIKTADRQYMEGFNDELEAFKERVRGRAKLRIEKAMKEYEEEERKKRLGPGGLDPVEVYESLPEELQKCFDVKDVQMLQDAISKMDPTDAKYHMQRCIDSGLWVPNSKASEAKEGEEAGPGDPLLEAVPKTGDEKDVSV
B2: sBRAF, solubilized version of BRAF kinase domain (residues 423-723), V600 background (domain or fragment)
chain: QRERKSSSSSEDRNRMKTLGRRDSSDDWEIPDGQITVGQRIGSGSFGTVYKGKWHGDVAVKMLNVTAPTPQQLQAFKNEVGVLRKTRHVNILLFMGYSTKPQLAIVTQWCEGSSLYHHLHASETKFEMKKLIDIARQTARGMDYLHAKSIIHRDLKSNNIFLHEDNTVKIGDFGLATVKSRWSGSHQFEQLSGSILWMAPEVIRMQDSNPYSFQSDVYAFGIVLYELMTGQLPYSNINNRDQIIEMVGRGSLSPDLSKVRSNCPKRMKRLMAECLKKKRDERPSFPRILAEIEELARELSG

How the values were obtained:
[1] = biological target: sBRAF V600E (solubilized BRAF kinase domain, residues 423-723, V600E) (human, UniProt P15056 423-723, V600E); experiment: ITC
[2] = biological target: B1; experiment: ITC

## B1
[1]
  Ka: 2.44e+06 M⁻¹

## B2
[2]
  Ka: 965000 M⁻¹
